Test results published in PMC3542637.

Legend:
Assay in all cases: purified protein
purified protein [1] = substrate: NC(=O)c1ccc[n+]([C@@H]2O[C@H](COP(=O)(O)OP(=O)(O)OC[C@H]3O[C@@H](n4cnc5c(N)ncnc54)[C@H](OP(=O)(O)O)[C@@H]3O)[C@@H](O)[C@H]2O)c1; format: biochemical, Burkholderia multivorans; details: 200 μM L-fucose, pH 8.0, 50 mM BICINE, 30 °C, varied: cofactor
purified protein [2] = substrate: NC(=O)c1ccc[n+]([C@@H]2O[C@H](COP(=O)(O)OP(=O)(O)OC[C@H]3O[C@@H](n4cnc5c(N)ncnc54)[C@H](O)[C@@H]3O)[C@@H](O)[C@H]2O)c1; format: biochemical, Burkholderia multivorans; details: 200 μM L-fucose, pH 8.0, 50 mM BICINE, 30 °C, varied: cofactor
purified protein [3] = substrate: C[C@H](O)[C@H]1OC(=O)[C@@H](O)[C@@H]1O; format: biochemical, Burkholderia multivorans; details: pH 8.3, 2.5 mM BICINE, 0.2 M NaCl, 1% DMSO, 30 °C
purified protein [4] = substrate: O=C1O[C@@H](CO)[C@@H](O)[C@@H]1O; format: biochemical, Burkholderia multivorans; details: pH 8.3, 2.5 mM BICINE, 0.2 M NaCl, 1% DMSO, 30 °C
purified protein [5] = substrate: O=C1O[C@H](CO)[C@@H](O)[C@@H]1O; format: biochemical, Burkholderia multivorans; details: pH 8.3, 2.5 mM BICINE, 0.2 M NaCl, 1% DMSO, 30 °C
purified protein [6] = substrate: O=C1O[C@H]([C@@H](O)CO)[C@@H](O)[C@@H]1O; format: biochemical, Burkholderia multivorans; details: pH 8.3, 2.5 mM BICINE, 0.2 M NaCl, 1% DMSO, 30 °C
purified protein [7] = substrate: C[C@H]1C[C@@H](O)[C@H](O)C(=O)O1; format: biochemical, Burkholderia multivorans; details: pH 7.1, 2.5 mM MOPS, 0.2 M NaCl, 1% DMSO, 30 °C
purified protein [8] = substrate: C[C@H](O)[C@H]1OC(=O)[C@@H](O)[C@@H]1O; format: biochemical, Burkholderia ambifaria; details: pH 8.3, 2.5 mM BICINE, 0.2 M NaCl, 1% DMSO, 30 °C
purified protein [9] = substrate: O=C1O[C@@H](CO)[C@@H](O)[C@@H]1O; format: biochemical, Burkholderia ambifaria; details: pH 8.3, 2.5 mM BICINE, 0.2 M NaCl, 1% DMSO, 30 °C
purified protein [10] = substrate: O=C1O[C@H](CO)[C@@H](O)[C@@H]1O; format: biochemical, Burkholderia ambifaria; details: pH 8.3, 2.5 mM BICINE, 0.2 M NaCl, 1% DMSO, 30 °C
purified protein [11] = substrate: O=C1O[C@H]([C@@H](O)CO)[C@@H](O)[C@@H]1O; format: biochemical, Burkholderia ambifaria; details: pH 8.3, 2.5 mM BICINE, 0.2 M NaCl, 1% DMSO, 30 °C
purified protein [12] = substrate: C[C@H]1C[C@@H](O)[C@H](O)C(=O)O1; format: biochemical, Burkholderia ambifaria; details: pH 7.1, 2.5 mM MOPS, 0.2 M NaCl, 1% DMSO, 30 °C

B1: BmulJ_04919 (Burkholderia multivorans ATCC 17616) (protein)
chain: MDLNLQDKVVIVTGGASGIGGAISMRLAEERAIPVVFARHAPDGAFLDALAQRQPRATYLPVELQDDAQCRDAVAQTIATFGRLDGLVNNAGVNDGIGLDAGRDAFVASLERNLIHYYAMAHYCVPHLKATRGAIVNISSKTAVTGQGNTSGYCASKGAQLALTREWAVALREHGVRVNAVIPAEVMTPLYRNWIATFEDPEAKLAEIAAKVPLGRRFTTPDEIADTAVFLLSPRASHTTGEWLFVDGGYTHLDRALV
B1 showed a Km (purified protein [1]) of 4.0 ± 0.5 µM, a kcat (purified protein [1]) of 11 ± 0.2 s⁻¹ and a kcat/Km (purified protein [1]) of 3e+06 M⁻¹ s⁻¹. The Km (purified protein [2]) was 28 ± 4 µM.

B2: BmulJ_04915 (Burkholderia multivorans ATCC 17616) (protein)
chain: MGALRIDSHQHFWRYRAADYPWIGAGMGVLARDYLPDALHPLMHAQALGASIAVQARAGRDETAFLLELACDEARIAAVVGWEDLRAPQLAERVAEWRGTKLRGFRHQLQDEADVRAFVDDADFARGVAWLQANDYVYDVLVFERQLPDVQAFCARHDAHWLVLDHAGKPALAEFDRDDTALARWRAALRELAALPHVVCKLSGLVTEADWRRGLRASDLRHIEQCLDAALDAFGPQRLMFGSDWPVCLLAASYDEVASLVERWAESRLSAAERSALWGGTAARCYALPEPADARL
B2 was tested, and the Km (purified protein [3]) was 1400 ± 200 µM, the kcat (purified protein [3]) was 140 ± 8 s⁻¹ and the Km (purified protein [4]) was 1500 ± 300 µM. The kcat (purified protein [4]) was 14 ± 1 s⁻¹, the Km (purified protein [5]) was 700 ± 50 µM and the kcat (purified protein [5]) was 59 ± 2 s⁻¹. For the same protein, the Km (purified protein [6]) was 1100 ± 200 µM, the kcat (purified protein [6]) was 32 ± 2 s⁻¹ and the Km (purified protein [7]) was 130 ± 30 µM. It also gave a kcat (purified protein [7]) of 994 ± 64 s⁻¹.

B3: Bamb_1224 (Burkholderia ambifaria AMMD) (protein)
chain: MTFRIDAHQHFWQMASRDGYWPPQTLDAIYRDFGPQDLEPLLARSGVQRTVVVQSLPTQEDTRYLLDVASRTSFVAAVVGWVDLKSTDAPADIASLARDPKFRGIRPMLQDLADDDWIDDPVLEPAIDAMLAHDLAFDALVTPRHLPALLAFARRYPRLRIVIDHAAKPPIASGRSEAWHVAMSELAAHPNVHCKLSGLWTEAGPHPDLLRVEPYVRAVCDWFGASRLIWGSDWPVSRLAGHFGDYGAWLAWCEQCCDRFLGPDARARVFGGNACHFYRIDRPSGDQHAQ
For B3, the Km (purified protein [8]) was 900 ± 100 µM, the kcat (purified protein [8]) was 89 ± 4 s⁻¹ and the Km (purified protein [9]) was 1300 ± 300 µM. For the same protein, the kcat (purified protein [9]) was 6.0 ± 0.5 s⁻¹, the Km (purified protein [10]) was 800 ± 100 µM and the kcat (purified protein [10]) was 19 ± 1 s⁻¹. It also gave a Km (purified protein [11]) of 1300 ± 100 µM, a kcat (purified protein [11]) of 55 ± 2 s⁻¹ and a Km (purified protein [12]) of 210 ± 20 µM. For the same protein, the kcat (purified protein [12]) was 1530 ± 47 s⁻¹.
